# Values of other authors as cited in PMC3234256.
# Target: Lys73 (UniProt position 71, MMSTFKVLLCG)
# Assay: NMR
substance,measurement,value
TEM-1 beta-lactamase (class A) (Escherichia coli),pKa,above 10
